Residue numbers refer to the chain shown, from its start. Several values for one entry are separate records, joined by “and”; a condition that tells them apart may be missing. Equal entries are not always repeated. Entries after “also recorded” stand apart in the source; their conditions may differ. Where two headings read alike, the source gives them in different places.
Experiments:
[1] = molecular target: T1, c-Met-Fc fusion protein (Homo sapiens, UniProt P08581); experiment: c-Met-Fc affinity by surface plasmon resonance (ProteOn); format: binding; conditions: serine mutants of A3 in the context of ECB15, SPR
T1 construct: recombinant EGFR and/or c-Met extracellular domain was further analyzed by surface Plasmon resonance
T1 sequence (P08581 25-932 limits assumed): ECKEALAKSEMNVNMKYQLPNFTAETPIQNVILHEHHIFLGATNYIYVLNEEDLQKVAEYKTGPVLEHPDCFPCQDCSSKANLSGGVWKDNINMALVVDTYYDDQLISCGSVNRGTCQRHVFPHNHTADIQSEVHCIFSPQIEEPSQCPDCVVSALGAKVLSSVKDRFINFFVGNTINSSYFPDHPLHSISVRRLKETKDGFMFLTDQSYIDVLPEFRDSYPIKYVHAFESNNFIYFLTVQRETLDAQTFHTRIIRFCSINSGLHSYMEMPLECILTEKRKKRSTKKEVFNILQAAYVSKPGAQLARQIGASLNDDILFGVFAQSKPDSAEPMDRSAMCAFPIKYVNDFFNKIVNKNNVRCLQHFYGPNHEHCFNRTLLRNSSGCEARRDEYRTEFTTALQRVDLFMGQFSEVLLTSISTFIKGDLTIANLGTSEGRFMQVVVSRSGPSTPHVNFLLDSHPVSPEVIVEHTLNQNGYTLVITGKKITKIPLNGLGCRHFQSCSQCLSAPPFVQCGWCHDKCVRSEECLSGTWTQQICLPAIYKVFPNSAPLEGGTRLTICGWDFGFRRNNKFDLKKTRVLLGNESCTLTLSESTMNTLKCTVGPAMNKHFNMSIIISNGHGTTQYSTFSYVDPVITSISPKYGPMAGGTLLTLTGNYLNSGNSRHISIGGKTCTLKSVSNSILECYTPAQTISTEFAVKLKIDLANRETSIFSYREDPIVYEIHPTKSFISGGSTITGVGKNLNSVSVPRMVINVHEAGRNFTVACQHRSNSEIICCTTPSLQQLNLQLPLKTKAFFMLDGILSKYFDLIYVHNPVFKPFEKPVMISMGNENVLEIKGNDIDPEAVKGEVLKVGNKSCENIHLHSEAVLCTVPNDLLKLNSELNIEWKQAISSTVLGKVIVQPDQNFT

[2] = tested on: NCI-H1975 cell line; experiment: Inhibition of growth of NCI-H1975 cell line (EGFR L858R; T790M); format: cell-based, human; conditions: NCI-H1975, mutation T790M
Protocol: Inhibition of human tumor cell growth was assessed in standard attachment culture as described in Examples 3 or 6, or in low attachment conditions.

[3] = tested on: NCI-H292 cells expressing human HGF, xenograft; experiment: Tumor efficacy study with bispecific molecules of variable affinity, H292-HGF xenograft; format: in vivo, mice; conditions: 25 mg/kg three times per week, FIG. 8
Protocol: One week after implantation, mice were stratified into groups with equivalent tumor volumes (mean tumor volume=77.9+/−1.7 mm^3). Mice were dosed three times per week with the bispecific molecules and tumor volumes were recorded twice weekly.

[4] = tested on: H292-HGF human lung cancer xenograft; format: in vivo
Protocol: The H292-HGF cells were maintained in vitro in RPMI1640 medium supplemented with fetal bovine serum (10% v/v), and L-glutamine (2 mM) at 37° C. in an atmosphere of 5% CO2 in air. The cells were routinely subcultured twice weekly by trypsin-EDTA treatment. The cells growing in an exponential growth phase were harvested and counted for tumor inoculation.
Each mouse was inoculated subcutaneously at the right flank region with H292-HGF tumor cells (2×10^6) in 0.1 ml of PBS with cultrex (1:1) for tumor development. The treatments were started when the mean tumor size reached 139 mm^3. […] The date of tumor cell inoculation was denoted as day 0.
Before commencement of treatment, all animals were weighed and the tumor volumes were measured. Since the tumor volume can affect the effectiveness of any given treatment, mice were assigned into groups using randomized block design based upon their tumor volumes. […] The randomized block design was used to assign experimental animals to groups. First, the experimental animals were divided into homogeneous blocks according to their initial tumor volume. Secondly, within each block, randomization of experimental animals to treatments was conducted.
At the time of routine monitoring, the animals were checked for any effects of tumor growth and treatments on normal behavior, such as mobility, visual estimation of food and water consumption, body weight gain/loss (body weights were measured twice weekly), eye/hair matting and any other abnormal effect.
The endpoint was whether tumor growth can be delayed or tumor bearing mice can be cured. Tumor size was measured twice weekly in two dimensions using a caliper, and the volume was expressed in mm^3 using the formula: V=0.5 a×b^2 where a and b are the long and short diameters of the tumor, respectively. The tumor size was then used for calculations of both T-C and T/C values. T-C was calculated with T as the time (in days) required for the mean tumor size of the treatment group to reach 1000 mm^3, and C was the time (in days) for the mean tumor size of the control group to reach the same size. The T/C value (in percent) was an indication of antitumor efficacy; T and C were the mean tumor volume of the treated and control groups, respectively, on a given day. Complete tumor regression (CR) is defined as tumors that are reduced to below the limit of palpation (62.5 mm^3). Partial tumor regression (PR) is defined as tumors that are reduced from initial tumor volume. A minimum duration of CR or PR in 3 or more successive tumor measurements is required for a CP or PR to be considered durable.
Animals for which the body weight loss exceeded 20%, or for which the mean tumor size of the group exceeds 2000 mm^3 were euthanized. The study was terminated after two weeks of observation after the final dose.
Statistical analyses of difference in tumor volume among the groups were evaluated using a one-way ANOVA followed by individual comparisons using Games-Howell (equal variance not assumed). All data were analyzed using SPSS 18.0. p<0.05 was considered to be statistically significant.

[5] = Differential scanning calorimetry in PBS (thermal stability); format: physicochemical; conditions: DSC in PBS, c-Met-binding FN3 domains

B1: ECB15: bispecific, SEQ ID NO: 57 (145 in Table 19): P54AR4-83v2-(AP)5-P114AR7P94-A3 (protein)
chain: MLPAPKNLVVSEVTEDSARLSWDDPWAFYESFLIQYQESEKVGEAIVLTVPGSERSYDLTGLKPGTEYTVSIYGVHNVYKDTNMRGLPLSAIFTTAPAPAPAPAPLPAPKNLVVSRVTEDSARLSWTAPDAAFDSFWIRYFEFLGSGEAIVLTVPGSERSYDLTGLKPGTEYVVNIMGVKGGKISPPLSAIFTT
modifications: bispecific EGFR/cMet binding molecule
ka [1]: 351000 M⁻¹ s⁻¹
kd [1]: 0.000133 s⁻¹
inhibition of growth (in words) [2]: inhibited growth of NCI-H1975 cell line

B2: ECB18: bispecific linked to albumin binding domain, SEQ ID NO: 118; high EGFR / medium c-Met affinity (protein)
chain: MLPAPKNLVVSEVTEDSARLSWDDPWAFYESFLIQYQESEKVGEAIVLTVPGSERSYDLTGLKPGTEYTVSIYGVHNVYKDTNMRGLPLSAIFTTAPAPAPAPAPLPAPKNLVVSRVTEDSARLSWTAPDAAFDSFWIRYDEVVVGGEAIVLTVPGSERSYDLTGLKPGTEYYVNILGVKGGSISVPLSAIFTTAPAPAPAPAPLAEAKVLANRELDKYGVSDYYKNLINNAKTVEGVKALLDEILAALP
modifications: Bispecific EGFR/c-Met binding molecule
tumor growth inhibition (in words) [3]: delay in tumor growth

B3: ECB38: bispecific linked to albumin binding domain, SEQ ID NO: 120; high EGFR / high c-Met affinity; test article of Tables 14-16 (protein)
chain: B2 chain with D141F, V143F, V144L, V145G, G146S, Y173V, L177M, S183K, V186P
modifications: Bispecific EGFR/c-Met binding molecule
tumor growth inhibition (in words) [3]: showed the most efficacy
treatment tolerated ([4]; 25 mg/kg, 3 times/week x 3 weeks): 7 out of 10
Tumor volume ([4]; day 7 (start of treatment), mean ± SEM, doses as in column head): 137 ± 7 mm^3
Tumor volume ([4]; day 9, mean ± SEM): 142 ± 7 mm^3
Tumor volume ([4]; day 13, mean ± SEM): 83 ± 6 mm^3
Tumor volume ([4]; day 16, mean ± SEM): 44 ± 7 mm^3
Tumor volume ([4]; day 20, mean ± SEM): 30 ± 6 mm^3
Tumor volume ([4]; day 23, mean ± SEM): 23 ± 7 mm^3
Tumor Size at day 23 ([4]; day 23 after tumor inoculation, doses given with treatment, listed as bispecific EGFR/c-Met molecule): 23 mm^3 and 23 ± 7 mm^3
Tumor volume ([4]; day 27, mean ± SEM): 21 ± 5 mm^3
Tumor volume ([4]; day 30, mean ± SEM): 23 ± 6 mm^3
antitumor activity (in words) ([4]; doses as in Table 14, listed as bispecific EGFR/c-Met molecule): complete tumor regression (CR) in all mice; also recorded: complete response
mice euthanized when BWL>20% during the treatment period ([4]; mouse, in vivo): 3 mice
tolerability / body weight loss (in words) ([4]; mouse, in vivo): Slight toxicity

B4: P114AR7P95-F10: c-Met-binding FN3 domain, SEQ ID NO: 47 (protein)
chain: LPAPKNLVVSRVTEDSARLSWTAPDAAFDSFWIRYFEFTTAGEAIVLTVPGSERSYDLTGLKPGTEYVVNIMGVKGGSISPPLSAIFTT
modifications: c-Met binding FN3 domain
Thermal Stability (Tm) [5]: 85.2 C.

B5: P114AR5P74-A5: c-Met-binding FN3 domain, SEQ ID NO: 32 (protein)
chain: B4 chain with F36D, F38V, T39V, T40V, A41G, V68Y, M72L, P81V
modifications: c-Met binding FN3 domain
Thermal Stability (Tm) [5]: 74.1 C.

B6: P114AR7P95-H8: c-Met-binding FN3 domain, SEQ ID NO: 49 (protein)
chain: B4 chain with T39V, T40S, A41K
modifications: c-Met binding FN3 domain
Thermal Stability (Tm) [5]: 83 C.

B7: P114AR7P95-G7: c-Met-binding FN3 domain, SEQ ID NO: 48 (protein)
chain: B4 chain with F38L, T39L, T40S, A41T
modifications: c-Met binding FN3 domain
Thermal Stability (Tm) [5]: 87.2 C.

B8: P114AR7P92-F6: c-Met-binding FN3 domain, SEQ ID NO: 35 (protein)
chain: B4 chain with T39L, T40G, A41S, M72L, S78G, I79L, P81V
modifications: c-Met binding FN3 domain
Thermal Stability (Tm) [5]: 76.8 C.

B9: ECB39: bispecific linked to albumin binding domain, SEQ ID NO: 121; medium EGFR / high c-Met affinity (protein)
chain: MLPAPKNLVVSEVTEDSARLSWADPHGFYDSFLIQYQESEKVGEAIVLTVPGSERSYDLTGLKPGTEYTVSIYGVHNVYKDTNMRGLPLSAIFTTAPAPAPAPAPLPAPKNLVVSRVTEDSARLSWTAPDAAFDSFWIRYFEFLGSGEAIVLTVPGSERSYDLTGLKPGTEYVVNIMGVKGGKISPPLSAIFTTAPAPAPAPAPLAEAKVLANRELDKYGVSDYYKNLINNAKTVEGVKALLDEILAALP
modifications: Bispecific EGFR/c-Met binding molecule
tumor growth inhibition (in words) [3]: showed the most efficacy
